Tests used:
[1] = target: endothelial cell receptor for TKPPR on human aortic endothelial cells (HAEC); experiment: competition on HAEC: VEGF121 400 ng/ml against 2% BRU-114 bubbles
[2] = target: endothelial cell receptor for TKPPR on human aortic endothelial cells (HAEC); experiment: competition on HAEC: VEGF121 200 ng/ml against 2% BRU-114 bubbles
[3] = target: endothelial cell receptor for TKPPR on human aortic endothelial cells (HAEC); experiment: competition on HAEC: VEGF121 100 ng/ml against 2% BRU-114 bubbles
[4] = target: endothelial cell receptor for TKPPR on human aortic endothelial cells (HAEC); experiment: competition on HAEC: KDR/Fc 250 ng/ml against 5% BRU-114 bubbles
[5] = target: endothelial cell receptor for TKPPR on human aortic endothelial cells (HAEC); experiment: competition on HAEC: KDR/Fc 500 ng/ml against 5% BRU-114 bubbles
[6] = target: endothelial cell receptor for TKPPR on human aortic endothelial cells (HAEC); experiment: competition on HAEC: KDR/Fc 2500 ng/ml against 5% BRU-114 bubbles
[7] = target: endothelial cell receptor for TKPPR on human aortic endothelial cells (HAEC); experiment: competition on HAEC: KDR/Fc 125 ng/ml against 5% BRU-114 bubbles
[8] = target: endothelial cell receptor for TKPPR on human aortic endothelial cells (HAEC); experiment: competition on HAEC: KDR/Fc 1000 ng/ml against 5% BRU-114 bubbles
[9] = target: endothelial cell receptor for TKPPR on human aortic endothelial cells (HAEC); experiment: fluorescent beads on confluent HAEC, static, Experiment 1, image analysis
[10] = target: endothelial cell receptor for TKPPR on human aortic endothelial cells (HAEC); experiment: competition on HAEC: VEGF165 25 ng/ml against 5% BRU-114 bubbles
[11] = target: endothelial cell receptor for TKPPR on human aortic endothelial cells (HAEC); experiment: competition on HAEC: VEGF165 12.5 ng/ml against 5% BRU-114 bubbles
[12] = target: endothelial cell receptor for TKPPR on human aortic endothelial cells (HAEC); experiment: competition on HAEC: VEGF165 6.25 ng/ml against 5% BRU-114 bubbles
[13] = target: endothelial cell receptor for TKPPR on human aortic endothelial cells (HAEC); experiment: competition on HAEC: VEGF165 against 5% BRU-114 bubbles
[14] = target: endothelial cell receptor for TKPPR on human aortic endothelial cells (HAEC); experiment: competition on HAEC: VEGF165 75 ng/ml against 5% BRU-114 bubbles
[15] = target: endothelial cell receptor for TKPPR on human aortic endothelial cells (HAEC); experiment: competition on HAEC: VEGF165 200 ng/ml against 2% BRU-114 bubbles
[16] = target: endothelial cell receptor for TKPPR on human aortic endothelial cells (HAEC); experiment: competition on HAEC: VEGF165 25 ng/ml against 2% BRU-114 bubbles
[17] = target: endothelial cell receptor for TKPPR on human aortic endothelial cells (HAEC); experiment: competition on HAEC: VEGF165 100 ng/ml against 2% BRU-114 bubbles
[18] = target: endothelial cell receptor for TKPPR on human aortic endothelial cells (HAEC); experiment: competition on HAEC: VEGF165 50 ng/ml against 5% BRU-114 bubbles

Chain of soluble human KDR/Fc chimera (R&D Systems) (P35968 20-764, change not shown): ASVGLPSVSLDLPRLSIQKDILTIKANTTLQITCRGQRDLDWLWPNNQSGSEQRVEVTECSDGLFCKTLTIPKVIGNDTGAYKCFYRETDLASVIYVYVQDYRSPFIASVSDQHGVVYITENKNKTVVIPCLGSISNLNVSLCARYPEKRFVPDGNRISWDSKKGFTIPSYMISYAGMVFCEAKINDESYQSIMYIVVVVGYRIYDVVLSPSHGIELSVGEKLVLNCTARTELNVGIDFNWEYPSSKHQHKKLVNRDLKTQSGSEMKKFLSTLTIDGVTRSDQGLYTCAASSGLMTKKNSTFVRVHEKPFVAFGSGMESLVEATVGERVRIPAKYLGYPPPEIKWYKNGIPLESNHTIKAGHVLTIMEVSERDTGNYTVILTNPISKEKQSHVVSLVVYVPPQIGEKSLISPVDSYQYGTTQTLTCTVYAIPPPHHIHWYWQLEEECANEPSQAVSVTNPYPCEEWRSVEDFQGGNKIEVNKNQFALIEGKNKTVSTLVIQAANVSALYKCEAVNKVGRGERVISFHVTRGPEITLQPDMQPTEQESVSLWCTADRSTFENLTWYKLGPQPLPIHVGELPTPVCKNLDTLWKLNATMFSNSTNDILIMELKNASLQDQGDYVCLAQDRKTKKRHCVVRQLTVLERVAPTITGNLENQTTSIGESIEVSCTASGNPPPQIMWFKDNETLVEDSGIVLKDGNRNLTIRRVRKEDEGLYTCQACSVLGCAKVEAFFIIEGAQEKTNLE

VEGF121 (from UniProt P15692 27-147) (ligand)
Bubbles Bound [1]: 778 bubbles | Bubbles Bound [2]: 849 bubbles | Bubbles Bound [3]: 878 bubbles

soluble human KDR/Fc chimera (R&D Systems) (from UniProt P35968 20-764) (Fc fusion)
Bubbles Bound [4]: 786 bubbles | Bubbles Bound [5]: 342 bubbles | Bubbles Bound [6]: 84 bubbles | Bubbles Bound [7]: 1030 bubbles | Bubbles Bound [8]: 75 bubbles

BSA-conjugated fluorescent microspheres (from UniProt P02769 25-607)
Integrated density of bound beads (arbitrary units) [9]: 1.61

VEGF165 (from UniProt P15692 27-191) (ligand)
Bubbles Bound [10]: 342 bubbles | Bubbles Bound [11]: 599 bubbles | Bubbles Bound [12]: 1180 bubbles | IC50 [13]: 0.0125 µg/mL | Bubbles Bound [14]: 190 bubbles | Bubbles Bound [15]: 70 bubbles | Bubbles Bound [16]: 144 bubbles | Bubbles Bound [17]: 94 bubbles | Bubbles Bound [18]: 226 bubbles

— US7109167
